Results on 5 molecules are retold here after paper PMC7954794, “Protein context shapes the specificity of SH3 domain-mediated interactions in vivo” (Nature Communications, 2021).

Holding throughout (format): cell-based, Saccharomyces cerevisiae
Assay [1] has as its system 575 putative partners (preys) of 22 WT SH3-containing proteins. The experiment in a line: DHFR-PCA on solid medium, WT and SH3-deleted baits (Fig. 1B). Further details: key to Score: 0: SH3-independent; 1: SH3-dependent PPIs; 2: SH3-inhibited PPIs. Particulars: for medrep (log2 median colony size normalized to plate background, PCA score): bait SLA1-3, DHFR-PCA, label = prey, Replicates 4 (2 for YCR009C, YDR388W, YIL033C); for Score: bait SLA1-3, label = prey. In outline:
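Interactions scored by DHFR protein-fragment complementation on solid medium using robotic pinning; preys (DHFR F[3] fusions) arrayed in duplicate with control borders. Baits carried C-terminal DHFR F[1,2]-FLAG tags, tested as wild type and as SH3-deleted versions carrying a flexible Gly/Ser stuffer.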

In the next assay the test system is ABP1. Kind of assay: DHFR-PCA on solid medium, bait ABP1 (Fig. 1B). To be noted: bait ABP1, label = prey; 2-4 replicates. The source says: (§1) Supplement 41467_2021_21873_MOESM8_ESM.xlsx, sheet "Fig1B" | column: medsize; medrep; Ratio; Score
A further assay has as its system BBC1. The experiment in a line: DHFR-PCA on solid medium, bait BBC1 (Fig. 1B). Particulars: bait BBC1, label = prey; for medrep (log2 median colony size normalized to plate background, PCA score): 2-4 replicates.
From the text: as §1

The test system of a further assay is BEM1-1. Kind of assay: DHFR-PCA on solid medium, bait BEM1-1 (Fig. 1B). Particulars: bait BEM1-1, label = prey; for medrep (log2 median colony size normalized to plate background, PCA score): 2-8 replicates.
From the text: as §1

For a further assay, the system named is BEM1-2. The experiment in a line: DHFR-PCA on solid medium, bait BEM1-2 (Fig. 1B). Particulars: bait BEM1-2, label = prey; 2-8 replicates.
From the text: as §1

The test system of the next assay is BOI2. Kind of assay: DHFR-PCA on solid medium, bait BOI2 (Fig. 1B). Particulars: bait BOI2, label = prey; 3-8 replicates.
From the text: as §1

For another assay, the system named is BUD14. The experiment in a line: DHFR-PCA on solid medium, bait BUD14 (Fig. 1B). Particulars: bait BUD14, label = prey; for medrep (log2 median colony size normalized to plate background, PCA score): 4 replicates.
From the text: as §1

The subject of a further assay is BZZ1-1. Kind of assay: DHFR-PCA on solid medium, bait BZZ1-1 (Fig. 1B). To be noted: bait BZZ1-1, label = prey; 4 replicates. The source says:
Supplement 41467_2021_21873_MOESM8_ESM.xlsx, sheet "Fig1B" | column: medsize; medrep; Score

In a further assay the test system is Hua2. The experiment in a line: Deep mutational scanning of Abp1 SH3, Abp1-Hua2 DHFR-PCA (DMS score). To be noted: Abp1-Hua2 DHFR-PCA, MTX2. In outline: (§2)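 Yeast carrying single-codon Abp1 SH3 variants at the endogenous locus, each paired with a Hua2 or Lsb3 DHFR-fragment partner; binding scored by growth over two successive 72 h PCA selections at 30 °C. Illumina counts before and after selection give the DMS score; independent duplicates.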

For a further assay, the system named is Lsb3. Kind of assay: Deep mutational scanning of Abp1 SH3, Abp1-Lsb3 DHFR-PCA (DMS score). Particulars: Abp1-Lsb3 DHFR-PCA, MTX2. In outline:
as §2

The subject of a further assay is Hua2 and Lsb3. Kind of assay: Classification of Abp1 SH3 mutants by DMS scores with Hua2 and Lsb3 (quadrant). Particulars: class by DMS scores with Hua2 and Lsb3 (Dest. both, Dest. Hua2, Dest. Lsb3, Neutral).
The subject of the next assay is BOI1. The experiment in a line: DHFR-PCA on solid medium, bait BOI1 (Fig. 1B). Particulars: bait BOI1, label = prey; 3-8 replicates.
From the text: as §1

Where [2] appears, read: only significant differences showed, PPIs completely lost have a ratio of 0.1 and the gained PPIs 2.5.

B1: YHR064C (protein, UniProt P38788 1-538, looked up)
Ribosome-associated complex …: MSSPVIGITFGNTSSSIAYINPKNDVDVIANPDGERAIPSALSYVGEDEYHGGQALQQLIRNPKNTIINFRDFIGLPFDKCDVSKCANGAPAVEVDGKVGFVISRGEGKEEKLTVDEVVSRHLNRLKLAAEDYIGSAVKEAVLTVPTNFSEEQKTALKASAAKIGLQIVQFINEPSAALLAHAEQFPFEKDVNVVVADFGGIRSDAAVIAVRNGIFTILATAHDLSLGGDNLDTELVEYFASEFQKKYQANPRKNARSLAKLKANSSITKKTLSNATSATISIDSLADGFDYHASINRMRYELVANKVFAQFSSFVDSVIAKAELDPLDIDAVLLTGGVSFTPKLTTNLEYTLPESVEILGPQNKNASNNPNELAASGAALQARLISDYDADELAEALQPVIVNTPHLKKPIGLIGAKGEFHPVLLAETSFPVQKKLTLKQAKGDFLIGVYEGDHHIEEKTLEPIPKEENAEEDDESEWSDDEPEVVREKLYTLGTKLMELGIKNANGVEIIFNINKDGALRVTARDLKTGNAVKGEL
For B1, the “medrep (log2 median colony size normalized to plate background, PCA score)” value in assay [1] is 4.584; in the assay with ABP1, 4.8359; in the assay on BBC1, 4.121; in the assay with BEM1-1, 1.993; in the assay with BEM1-2, 1.993; with BOI2 it was 2.6006. For the same molecule, the “medrep (log2 median colony size normalized to plate background, PCA score)” value with BUD14 turned out to be 1.869; in the assay on BZZ1-1, 2.391. For the same molecule, the Score in [1] was found to be 0. Besides, the “Ratio (SH3-deleted/WT medrep)” value in the assay with BEM1-1 (setting [2]) and with BUD14 (setting [2]) was 0.1 in each case.

B2: ABP1 D33D (protein, UniProt P15891 2-592, looked up)
Actin-binding protein: ALEPIDYTTHSREIDAEYLKIVRGSDPDTTWLIISPNAKKEYEPESTGSSFHDFLQLFDETKVQYGLARVSPPGSDVEKIIIIGWCPDSAPLKTRASFAANFAAVANNLFKGYHVQVTARDEDDLDENELLMKISNAAGARYSIQTSSKQQGKASTPPVKKSFTPSKSPAPVSKKEPVKTPSPAPAAKISSRVNDNNDDDDWNEPELKERDFDQAPLKPNQSSYKPIGKIDLQKVIAEEKAKEDPRLVQKPTAAGSKIDPSSDIANLKNESKLKRDSEFNSFLGTTKPPSMTESSLKNDDDKVIKGFRNEKSPAQLWAERKAKQNSGNAETKAEAPKPEVPEDEPEGEPDVKDLKSKFEGLAASEKEEEEMENKFAPPPKKSEPTIISPKPFSKPQEPVKAEEAEQPKTDYKKIGNPLPGMHIEADNEEEPEENDDDWDDDEDEAAQPPLPSRNVASGAPVQKEEPEQEEIAPSLPSRNSIPAPKQEEAPEQAPEEEIEEEAEEAAPQLPSRSSAAPPPPPRRATPEKKPKENPWATAEYDYDAAEDNELTFVENDKIINIEFVDDDWWLGELEKDGSKGLFPSNYVSLGN
modifications: synonymous D33D codon change
As to B2, in the assay on Hua2, the “hua2sc (frequencies scaled to the synonymous mutation distribution, DMS score)” value is on record as 0.4122 and the “HUA2_MTX2 (frequencies normalized to the reference condition)” value came out at 2.025. For the same molecule, in the assay on Lsb3, the “lsb3sc (frequencies scaled to the synonymous mutation distribution, DMS score)” value is listed as 0.1943 and the “LSB3_MTX2 (frequencies normalized to the reference condition)” value was found to be 1.695. Moreover, the quadrant entry in the assay with Hua2 and Lsb3 is reported as “Neutral”.

B3: ABP1 D34D (protein, UniProt P15891 2-592, looked up)
Actin-binding protein: ALEPIDYTTHSREIDAEYLKIVRGSDPDTTWLIISPNAKKEYEPESTGSSFHDFLQLFDETKVQYGLARVSPPGSDVEKIIIIGWCPDSAPLKTRASFAANFAAVANNLFKGYHVQVTARDEDDLDENELLMKISNAAGARYSIQTSSKQQGKASTPPVKKSFTPSKSPAPVSKKEPVKTPSPAPAAKISSRVNDNNDDDDWNEPELKERDFDQAPLKPNQSSYKPIGKIDLQKVIAEEKAKEDPRLVQKPTAAGSKIDPSSDIANLKNESKLKRDSEFNSFLGTTKPPSMTESSLKNDDDKVIKGFRNEKSPAQLWAERKAKQNSGNAETKAEAPKPEVPEDEPEGEPDVKDLKSKFEGLAASEKEEEEMENKFAPPPKKSEPTIISPKPFSKPQEPVKAEEAEQPKTDYKKIGNPLPGMHIEADNEEEPEENDDDWDDDEDEAAQPPLPSRNVASGAPVQKEEPEQEEIAPSLPSRNSIPAPKQEEAPEQAPEEEIEEEAEEAAPQLPSRSSAAPPPPPRRATPEKKPKENPWATAEYDYDAAEDNELTFVENDKIINIEFVDDDWWLGELEKDGSKGLFPSNYVSLGN
modifications: synonymous codon change D34D
Regarding B3, in the assay with Hua2, the “hua2sc (frequencies scaled to the synonymous mutation distribution, DMS score)” value is reported as -0.3883 and the “HUA2_MTX2 (frequencies normalized to the reference condition)” value is on record as 1.224. Moreover, in the assay on Lsb3, the “lsb3sc (frequencies scaled to the synonymous mutation distribution, DMS score)” value is recorded as -0.3576 and the “LSB3_MTX2 (frequencies normalized to the reference condition)” value came out at 1.143. For the same molecule, the quadrant result with Hua2 and Lsb3 was “Neutral”.

B4: YIL033C (protein, UniProt P07278 2-416, looked up)
cAMP-dependent protein kinase …: VSSLPKESQAELQLFQNEINAANPSDFLQFSANYFNKRLEQQRAFLKAREPEFKAKNIVLFPEPEESFSRPQSAQSQSRSRSSVMFKSPFVNEDPHSNVFKSGFNLDPHEQDTHQQAQEEQQHTREKTSTPPLPMHFNAQRRTSVSGETLQPNNFDDWTPDHYKEKSEQQLQRLEKSIRNNFLFNKLDSDSKRLVINCLEEKSVPKGATIIKQGDQGDYFYVVEKGTVDFYVNDNKVNSSGPGSSFGELALMYNSPRAATVVATSDCLLWALDRLTFRKILLGSSFKKRLMYDDLLKSMPVLKSLTTYDRAKLADALDTKIYQPGETIIREGDQGENFYLIEYGAVDVSKKGQGVINKLKDHDYFGEVALLNDLPRQATVTATKRTKVATLGKSGFQRLLGPAVDVLKLNDPTRH
Turning to B4, the “medrep (log2 median colony size normalized to plate background, PCA score)” value is 2.8 in [1]; 3.25 with ABP1; 2.137 with BBC1; 1.8558 in the assay with BEM1-1; 1.8558 in the assay on BEM1-2; 2.0471 in the assay on BOI1. Besides, the “medrep (log2 median colony size normalized to plate background, PCA score)” value in the assay on BOI2 was determined as 1.723; in the assay with BUD14 it was 1.967; with BZZ1-1, 2.099. The Score in assay [1] is 0.

B5: YHR114W (protein, UniProt P38822 1-633, looked up)
Protein BZZ1: MSADLSIGNEIKDSFKETHKWVQNNLKWLKDIEQFYRERAKLEKDYSERLSRLSAEYFNKKSSTSVPISVGDTPTTTPGSIEAAGVVAWNEILSQTDMISKDHDQLSTDFENHVANQLSGLFTKLDMTLSKINGFNNDMVNKKDNIYHELEKAKKDYDEACSTMEMARNRYTKASNDRNKKKLDEKEMEMNKCKNEYLIKINQANRTKDKYYFQDVPEVLDLLQDVNEAKTLFLNDLWLKAASVENDLGANVSKRLQAANSVVKQNKPSLNTAIFIKHNLKNWKEPQDFVYKPSPVWHDDEKFAVPSSLEVEDLRIKLAKAENDYNSLQDKTQNELSKLSTLNKIKHEMKTNEDNINATKFYDTLKEYLNVVSPFTSHETLKLQAEVQIESIQNNVPEEYDLSTDNIDLSKTKKKSGIFSKFKHNILNVDSKPSSGGSTGNGNGGPLHITSLFNTSRRTRLGSAPNNAGEDSDNNSIRTTSTNNTKKTTQNSSDDGKNKVLYAYVQKDDDEITITPGDKISLVARDTGSGWTKINNDTTGETGLVPTTYIRISSAATVKANDRGPAPEVPPPRRSTLPVRTMEAIYAYEAQGDDEISIDPGDIITVIRGDDGSGWTYGECDGLKGLFPTSYCK
B5: the “medrep (log2 median colony size normalized to plate background, PCA score)” value worked out at 3.834 in the assay with ABP1, 1.475 in the assay on BBC1 and 4.137 in the assay on BZZ1-1. For the same molecule, the “Ratio (SH3-deleted/WT medrep)” value in the assay on BBC1 (setting [2]) was 0.1.
